Test results: the supplement of paper PMC9233669
Variants at the floor of the assay were thinned out.

How the values were obtained:
[1] = system: biotinyl-Trp-oxazolone; experiment: self-aminoacylation, catalytic enhancement (BWO) (fold over background); higher = more active; k-Seq, kA / k0A0; sequences stand for … in GGGAAUGGAUCCACAUCUACGAAUUC…UUCACUGCAGACUUGACGAAGCUG
In short: (§1)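 Mutagenized RNA pools (0.43 μM; 21-nt variable region) were treated with 2–1250 μM of each biotinyl-aminoacyl-oxazolone. Conditions were 50 μL HEPES/NaCl/KCl/MgCl2/CaCl2 buffer, 5% acetonitrile, pH 6.9–7.0, room temperature, 90 minutes. Catalytic enhancement, the median kA relative to the uncatalyzed rate, was derived from streptavidin capture, qPCR and Illumina sequencing.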

[2] = system: biotinyl-Leu-oxazolone; experiment: self-aminoacylation, catalytic enhancement (BLO) (fold over background); higher = more active; k-Seq, kA / k0A0; sequences stand for … in GGGAAUGGAUCCACAUCUACGAAUUC…UUCACUGCAGACUUGACGAAGCUG
In short: as §1

[3] = system: biotinyl-Ile-oxazolone; experiment: self-aminoacylation, catalytic enhancement (BIO) (fold over background); higher = more active; k-Seq, kA / k0A0; sequences stand for … in GGGAAUGGAUCCACAUCUACGAAUUC…UUCACUGCAGACUUGACGAAGCUG
In short: as §1

[4] = system: biotinyl-Met-oxazolone; experiment: self-aminoacylation, catalytic enhancement (BMO) (fold over background); higher = more active; k-Seq, kA / k0A0; sequences stand for … in GGGAAUGGAUCCACAUCUACGAAUUC…UUCACUGCAGACUUGACGAAGCUG
In short: as §1

[5] = system: biotinyl-Phe-oxazolone; experiment: self-aminoacylation, catalytic enhancement (BFO) (fold over background); higher = more active; k-Seq, kA / k0A0; sequences stand for … in GGGAAUGGAUCCACAUCUACGAAUUC…UUCACUGCAGACUUGACGAAGCUG
In short: as §1

[6] = system: biotinyl-Val-oxazolone; experiment: self-aminoacylation, catalytic enhancement (BVO) (fold over background); higher = more active; k-Seq, kA / k0A0; sequences stand for … in GGGAAUGGAUCCACAUCUACGAAUUC…UUCACUGCAGACUUGACGAAGCUG
In short: as §1

Sequence	self-aminoacylation [1]	self-aminoacylation [2]	self-aminoacylation [3]	self-aminoacylation [4]	self-aminoacylation [5]	self-aminoacylation [6]
AUUGCCCUGGUCAUUGAGUGA [Fam2.1 aminoacylation ribozyme variant]	9.51	7.3	3.72	8.44	64.3	4.2
AUUGCCCUGGUUAUCGAGUGA [Fam2.1 aminoacylation ribozyme variant]	10.7	9.13	4.09	8.87	58.7	4.17
AUUGCCUUGGUCAUCGAGUGA [Fam2.1 aminoacylation ribozyme variant]	8.73	8.79	4.46	8.02	48.9	4.83
AUUGCUCUGGUCAUCGAGUGA [Fam2.1 aminoacylation ribozyme variant]	6.59	5.71	3.33	6.02	6.13	3.3
AUUGGCCUAGGUCAUCGGGUG [Fam2.2 aminoacylation ribozyme variant]	27.4	48	18.3	36.9	277	14.9
AUUUACCUAAGUCAUCGGGUG [Fam2.2 aminoacylation ribozyme variant]	7.89	11.1	4.85	7.89	64.2	4.66
AUUUACCUAGAUCAUCGGGUG [Fam2.2 aminoacylation ribozyme variant]	3.38	3	2.17	2.35	12.3	1.88
AUUUACCUAGGGCAUCGGGUG [Fam2.2 aminoacylation ribozyme variant]	3.7	3.47	2.92	3.65	16.7	3.12
AUUUACCUAGGUAAUCGGGUG [Fam2.2 aminoacylation ribozyme variant]	2.92	3.42	1.85	2.75	17.3	1.78
AUUUACCUAGGUCACCGGGUG [Fam2.2 aminoacylation ribozyme variant]	3.83	6.09	3.61	4.23	26.5	3.08
AUUUACCUAGGUCAUCGGGUA [Fam2.2 aminoacylation ribozyme variant]	22.2	39.9	14.1	29.5	218	12.3
AUUUACCUAGGUGAUCGGGUG [Fam2.2 aminoacylation ribozyme variant]	2.89	3.24	2.46	2.64	15	2.45
AUUUCACUGGUCAUCGAGUGA [Fam2.1 aminoacylation ribozyme variant]	6.42	4.92	2.99	4.7	19.9	2.85
AUUUCCCCGGUCAUCGAGUGA [Fam2.1 aminoacylation ribozyme variant]	8.04	5.8	3.34	5.69	32.5	3.65
AUUUCCCUGGUCAACGAGUGA [Fam2.1 aminoacylation ribozyme variant]	8.23	6.99	3.9	6.93	42.4	3.91
AUUUCCCUGGUCAUAGAGUGA [Fam2.1 aminoacylation ribozyme variant]	12.2	9.78	4.67	9.7	61.5	4.88
AUUUCCCUGGUCAUCGAGUAA [Fam2.1 aminoacylation ribozyme variant]	2.37	2.52	1.56	2.39	3.9	1.83
AUUUCCCUGGUCAUCGAGUGA [Fam2.1 aminoacylation ribozyme variant]	16.5	14.3	7.41	14.3	27.4	8.47
AUUUCCCUGGUCAUUGAGUGA [Fam2.1 aminoacylation ribozyme variant]	10	8.38	4.47	8.36	63.1	4.4
AUUUCCCUGGUCGUCGAGUGA [Fam2.1 aminoacylation ribozyme variant]	1.55	1.21	1.06	1.12	4.18	1.08
AUUUCCCUGGUCUUCGAGUGA [Fam2.1 aminoacylation ribozyme variant]	9.21	7.28	4.33	6.94	47.9	4.6
AUUUCCCUUGUCAUCGAGUGA [Fam2.1 aminoacylation ribozyme variant]	8.99	7.73	3.62	7.14	46	4.17
AUUUCUCUGGUCAUCGAGUGA [Fam2.1 aminoacylation ribozyme variant]	7.1	5.82	3.1	5.74	20.5	3.2
AUUUUCCUAGGUCAUCGGGUG [Fam2.2 aminoacylation ribozyme variant]	6.89	9.58	4.64	6.79	30.9	4.16
CAACACUUCAAGCAAGCGGUC [Fam1B.1 aminoacylation ribozyme variant]	0.593	1.25	1.1	1.24	0.831	0.953
CAACACUUCAAGCAAUCAGUC [Fam1B.1 aminoacylation ribozyme variant]	4.78	0.923	0.858	0.716	14.5	0.772

Sequence	self-aminoacylation [1]	self-aminoacylation [2]	self-aminoacylation [3]	self-aminoacylation [4]	self-aminoacylation [5]	self-aminoacylation [6]
CAACACUUCAAGCAAUCGCUC [Fam1B.1 aminoacylation ribozyme variant]	1.54	2.04	1.85	1.19	0.965	1.57
CAACACUUCAAGCCAUCGGUC [Fam1B.1 aminoacylation ribozyme variant]	1.24	1.74	1.35	1.35	1.04	1.48
CAACACUUCAAGCGAUCGGUC [Fam1B.1 aminoacylation ribozyme variant]	1.81	1.55	1.27	1.29	1.94	1.25
CAACACUUGAAGCAAUCGGUC [Fam1B.1 aminoacylation ribozyme variant]	0.696	0.842	0.911	0.731	0.601	0.828
CAACACUUUAAGCAAUCGGUC [Fam1B.1 aminoacylation ribozyme variant]	0.886	0.854	0.96	0.762	1.03	0.846
CAACAGUUCAAGCAAUCGGUC [Fam1B.1 aminoacylation ribozyme variant]	3.42	1.38	1.22	1.28	4.54	1.15
CAACUUCAAAAAAUCGGUCUG [Fam1A.1 aminoacylation ribozyme variant]	11.9	1.46	1.7	1.15	14.8	1.31
CAACUUCAAACAACCGGUCUG [Fam1A.1 aminoacylation ribozyme variant]	1.75	1.14	1.24	1.11	3.54	1.32
CAACUUCAAACAAGCGGUCUG [Fam1A.1 aminoacylation ribozyme variant]	1.3	1.12	1.42	1.24	1.19	1
CAACUUCAAACAAUCGGUAUG [Fam1A.1 aminoacylation ribozyme variant]	21	1.61	1.21	1.31	33.3	1.04
CAACUUCAAACAAUCGGUCUU [Fam1A.1 aminoacylation ribozyme variant]	27.7	2.43	1.59	1.53	45.8	1.5
CAACUUCAAACAUUCGGUCUG [Fam1A.1 aminoacylation ribozyme variant]	1.74	1.5	1.53	1.34	11.5	1.57
CAACUUCAAAUAAUCGGUCUG [Fam1A.1 aminoacylation ribozyme variant]	12.2	1.39	1.27	1.05	15.6	1.11
CAACUUCAAGCAAUCGGUCUG [Fam1A.1 aminoacylation ribozyme variant]	20.5	2.26	1.54	1.59	27.2	1.39
CAGCUUGCUAAUAGUCGCAAG [Fam3.1 aminoacylation ribozyme variant]	1.72	1.89	1.82	1.72	2.54	1.86
CAGUUUGAUAAUAGUCGCAAG [Fam3.1 aminoacylation ribozyme variant]	1.26	1.34	1.4	1.32	1.89	1.54
CAGUUUGCCAAUAGUCGCAAG [Fam3.1 aminoacylation ribozyme variant]	1.34	1.91	2.08	1.83	6.08	1.82
CAGUUUGCUAAAAGUCGCAAG [Fam3.1 aminoacylation ribozyme variant]	1.3	1.5	1.46	1.64	1.86	1.4
CAGUUUGCUAAUAGUCGCCAG [Fam3.1 aminoacylation ribozyme variant]	2.45	2.43	1.86	1.91	10.1	2.17
CAGUUUGCUGAUAGUCGCAAG [Fam3.1 aminoacylation ribozyme variant]	1.99	1.17	1.34	1.11	1.88	1.27
CAGUUUGUUAAUAGUCGCAAG [Fam3.1 aminoacylation ribozyme variant]	1.37	1.64	1.57	1.74	2.25	1.42
CAUACCCUGGUCAUCGAGUGA [Fam2.1 aminoacylation ribozyme variant]	11.7	11.8	5.75	11.3	17.6	6.04
CAUCACUUCAAGCAAUCGGUC [Fam1B.1 aminoacylation ribozyme variant]	15.6	1.47	1.17	1.09	32.7	1.2
CCAAAAUUCAAGCAAUCGGUC [Fam1B.1 aminoacylation ribozyme variant]	1.13	1.08	1.17	1.01	1.09	1.21
CCAAACUUCAAGAAAUCGGUC [Fam1B.1 aminoacylation ribozyme variant]	5.02	0.986	0.936	0.927	6.01	0.84
